Source: patent US20120148586A1 (published 2012)

Molecular target: GLP-1R (receptor addressed by the glucose-stimulated insulin secretion assay of Table 1)
Assay: cell-based or functional assay

EC50 (µM), glucose-stimulated insulin secretion (GSIS) assay [µM] | Binder
0.094 | HXEGTFTSDVSSYLEGQAAKEFIAWLVKXR (Aib at position 2 and Aib before the C-terminal R; linking residue K26 (so in the source)) [peptide of GAC-9 (not tethered to an antibody)]
0.041 | HXEGTFTSDVSSYLEGQAAKEFIAWLVKGR (Aib at position 2; linking residue K26 (so in the source)) [peptide of GAC-4 (not tethered to an antibody)]
